# Data taken from article PMC7097325.
# B1: 24-nt RNA oligomer (ssRNA)
# RNA: UUUGUUACACACACACACGCUGUG
# Target: Influenza A nucleoprotein (NP), wild type (Influenza A virus A/WSN/33 (H1N1), UniProt P15682 1-498)
# Test: EMSA
binder,measurement,value
B1,binding result,binds
